{
  "source": "patent US20110262386A1",
  "about": "“METHODS OF TREATING INFLAMMATION” (CAROLUS THERPEUTICS, INC., priority 2008, published 2011)",
  "molecules": {"B1": {"name": "MIF: Recombinant MIF, expressed and purified as described; pro-inflammatory cytokine, ligand for CXCR2, CXCR4 and CD74 (protein)", "chain": "PMFIVNTNVPRASVPDGFLSELTQQLAQATGKPPQYIAVHVVPDQLMAFGGSSEPCALCSLHSIGKIGGAQNRSYSKLLCGLLAERLRISPDRVYINYYDMNAANVGWNNSTFA"}},
  "key": {"[1]": {"target": "CXCR4-bearing Jurkat cells (Homo sapiens, UniProt P61073)", "sequence (P61073 whole entry)": "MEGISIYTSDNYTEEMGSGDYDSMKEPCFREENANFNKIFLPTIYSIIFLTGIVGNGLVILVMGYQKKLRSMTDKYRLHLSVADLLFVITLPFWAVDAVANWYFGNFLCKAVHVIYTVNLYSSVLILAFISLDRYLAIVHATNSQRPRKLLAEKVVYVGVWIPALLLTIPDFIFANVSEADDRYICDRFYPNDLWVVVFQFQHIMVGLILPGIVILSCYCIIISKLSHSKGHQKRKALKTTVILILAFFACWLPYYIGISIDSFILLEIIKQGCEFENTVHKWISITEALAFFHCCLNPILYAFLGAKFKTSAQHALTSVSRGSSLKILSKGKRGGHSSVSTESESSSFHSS"}, "[2]": {"system": "Apoe−/− mice"}, "[3]": {"system": "primary human effector T cells", "assay": "T-cell arrest under flow on aortic endothelial cells", "type": "cell-based", "conditions": "immobilized on aortic endothelial cells", "experimental": "(§1) Arrest of calcein-AM (Molecular Probes)-labeled monocytes, T cells and L1.2 transfectants was quantified in parallel-wall chambers in flow (1.5 dynes/cm^2, 5 min) (Schober, A., at al. (2004) Circulation 109, 380-385; Osterman, G., at al. (2002) Nat. Immunol. 3, 151-158; Weber, C., at al. (1996) J. Cell Biol. 134, 1063-1073)."}, "[4]": {"system": "MonoMac6 cells", "assay": "Monocytic cell arrest under flow on CHO/ICAM-1 cells", "type": "cell-based", "conditions": "exposure 2 h, flow conditions", "experimental": "as §1"}, "[5]": {"system": "primary human monocytes", "assay": "Transwell chemotaxis of monocytes", "type": "cell-based", "experimental": "(§2) Pore sizes and intervals were 5 μm and 3 h (monocytes), 3 μm and 1.5 h (T cells), and […] and 1 h (neutrophils)."}, "[6]": {"system": "primary CD3+ T lymphocytes", "assay": "Transwell chemotaxis of T cells", "type": "cell-based, human", "conditions": "CD3+ T lymphocytes devoid of CXCR1 and CXCR2", "experimental": "as §2"}, "[7]": {"system": "primary human neutrophils", "assay": "Transwell chemotaxis of neutrophils", "type": "cell-based", "experimental": "as §2"}, "[8]": {"system": "primary human monocytes", "assay": "Monocyte arrest under flow on human aortic endothelial cells", "type": "cell-based", "conditions": "endothelial cells pretreated 2 h, flow conditions", "experimental": "as §1"}, "[9]": {"system": "αLβ2 (LFA-1)", "assay": "αLβ2 integrin activation assay (327C reporter antibody, flow cytometry)", "type": "cell-based", "conditions": "MonoMac6 cells and human blood monocytes; persisted over 30 min", "text": "LFA-1 activation analyzed by flow cytometry is reported as the increase in mean fluorescent intensity (MFI) or relative to the positive control (Shamri, R., at al. (2005) Nat. Immunol. 6, 497-506)."}, "[10]": {"system": "primary human neutrophils", "assay": "Calcium mobilization in neutrophils (Fluo-4 AM)", "type": "cell-based"}, "[11]": {"system": "CXCR2", "assay": "Calcium mobilization in L1.2 CXCR2 transfectants", "type": "cell-based"}, "[12]": {"target": "T1, CXCR2 (Homo sapiens, UniProt P25025)", "T1 construct": "expressed in transfected cells", "T1 sequence (P25025 1-360)": "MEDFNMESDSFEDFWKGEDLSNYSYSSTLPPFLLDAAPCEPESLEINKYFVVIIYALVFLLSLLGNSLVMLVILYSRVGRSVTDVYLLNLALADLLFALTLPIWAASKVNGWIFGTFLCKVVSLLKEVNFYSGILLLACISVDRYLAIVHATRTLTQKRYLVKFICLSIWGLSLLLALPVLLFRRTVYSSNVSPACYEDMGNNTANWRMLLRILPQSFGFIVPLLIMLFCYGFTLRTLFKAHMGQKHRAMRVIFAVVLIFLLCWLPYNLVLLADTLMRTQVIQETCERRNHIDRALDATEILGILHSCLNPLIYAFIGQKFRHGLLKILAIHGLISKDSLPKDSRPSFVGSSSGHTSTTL", "assay": "CXCR2 internalization assay, HEK293-CXCR2", "type": "cell-based", "conditions": "FACS of surface CXCR2, stable HEK293 transfectants", "experimental": "(§3) Internalization was calculated relative to surface expression of buffer-treated cells (100% control) and isotype control staining (0% control): geometric MFI[experimental]−MFI[0% control]/MFI[100% control]−MFI[0% control]×100."}, "[13]": {"target": "T2, CCR5 (Homo sapiens, UniProt P51681)", "T2 construct": "host or cells: L1.2 pre-B lymphoma cells", "T2 sequence (P51681 whole entry)": "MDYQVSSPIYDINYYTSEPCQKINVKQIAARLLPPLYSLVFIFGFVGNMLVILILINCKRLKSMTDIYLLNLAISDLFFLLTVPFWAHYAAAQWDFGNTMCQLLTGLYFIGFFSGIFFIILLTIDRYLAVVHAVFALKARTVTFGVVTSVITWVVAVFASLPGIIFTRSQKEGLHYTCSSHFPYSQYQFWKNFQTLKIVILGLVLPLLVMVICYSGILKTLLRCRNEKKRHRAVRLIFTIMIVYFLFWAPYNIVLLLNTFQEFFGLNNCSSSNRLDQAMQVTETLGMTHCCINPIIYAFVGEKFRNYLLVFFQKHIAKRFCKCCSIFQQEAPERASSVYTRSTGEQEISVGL", "assay": "CCR5 internalization in L1.2 CCR5 transfectants", "type": "cell-based", "experimental": "as §3"}, "[14]": {"system": "postcapillary venules of cremaster muscle", "assay": "Cremaster microcirculation model, intravital microscopy", "type": "in vivo, mouse", "conditions": "MIF injected adjacent to the muscle", "experimental": "After 4 h, intravital microscopy (Zeiss Axioplan; 20×) was performed in postcapillary venules (Gregory, J. L., at al. (2004) Arthritis Rheum. 50, 3023-3034; Keane, M. P., at al. (2004) J. Immunol. 172, 2853-2860). Adhesion was measured as leukocytes stationary for more than 30 s, emigration as the number of extravascular leukocytes per field."}, "[15]": {"system": "mice with wild-type bone marrow", "assay": "Model of acute peritonitis (MIF-induced)", "type": "in vivo, mouse", "conditions": "after 4 h", "experimental": "After 4 h, peritoneal lavage was performed and Gr-1^+CD115^−F4/80^− neutrophils were quantified by flow cytometry using the relevant conjugated antibodies."}, "[16]": {"system": "human aortic (or venous) endothelial cells", "assay": "Real-time PCR and ELISA of arrest chemokines in endothelial cells", "type": "cell-based", "conditions": "2-h-long preincubation", "experimental": "RNA was reverse-transcribed using oligo-dT primers. RTPCR was performed using QuantiTect Kit with SYBRGreen (Qiagen), specific primers and an MJ Opticon2 (Biozym). CXCL8 was quantified by Quantikine ELISA (R&D)."}, "[17]": {"conditions": "12 weeks, compared with vehicle controls"}},
  "data": [
    {"molecule": "c1ccc(CNCc2ccc(CN3CCCNCCNCCCNCC3)cc2)nc1", "note": "[AMD3465]", "values": [
      {"measurement": "effect on specific binding of fluorescein-MIF to CXCR4-bearing Jurkat cells", "setting": "[1]", "value": "inhibited"},
      {"measurement": "lesion formation in oil red O-stained aortic root sections", "setting": "[2]; [17]", "value": "significantly exacerbates lesion formation"},
      {"measurement": "lesion formation in thoracoabdominal aortas prepared en face", "setting": "[2]; [17]", "value": "significantly exacerbates lesion formation"},
      {"measurement": "relative number of circulating neutrophils", "setting": "[2]; further increases during disease progression", "value": "expansion in the relative number of circulating neutrophils"},
      {"measurement": "peripheral blood leukocytes", "setting": "[2]; within 2 days, sustained throughout the study period", "value": "pronounced peripheral blood leukocytosis"}
    ]},
    {"molecule": "CXCL12: Chemokine from PeproTech; known CXCR4 ligand and T-cell chemoattractant [reference compound]", "values": [
      {"measurement": "arrest of primary human effector T cells", "setting": "[3]", "value": "triggered the arrest"}
    ]},
    {"molecule": "CXCL8: Chemokine from PeproTech; cognate CXCR2 ligand [reference compound]", "values": [
      {"measurement": "monocytic cell arrest on pretreated CHO/ICAM-1 transfectants", "setting": "[4]", "value": "increased monocytic cell arrest"}
    ]},
    {"molecule": "B1", "values": [
      {"measurement": "MIF concentration that induced optimal chemotaxis", "setting": "[5]", "value": "2 to 4", "unit": "nM"},
      {"measurement": "optimum concentration of bell-shaped dose-response curve of monocyte migration", "setting": "[5]; MIF in lower chamber", "value": "25 to 50", "unit": "ng/mL"},
      {"measurement": "induction of T-cell transmigration", "setting": "[6]", "value": "dose-dependently induced transmigration"},
      {"measurement": "chemotactic activity on neutrophils", "setting": "[7]", "value": "exerted CXCR2- but not CXCR1-mediated chemotactic activity"},
      {"measurement": "arrest of primary human monocytes on pretreated endothelial cells", "setting": "[8]", "value": "substantially increased"},
      {"measurement": "monocytic cell arrest on pretreated CHO/ICAM-1 transfectants", "setting": "[4]", "value": "increased monocytic cell arrest"},
      {"measurement": "arrest of primary human effector T cells", "setting": "[3]", "value": "triggered the arrest"},
      {"measurement": "earliest time of αLβ2 activation after exposure", "setting": "[9]", "value": 1, "unit": "min"},
      {"measurement": "calcium influx in neutrophils", "setting": "[10]", "value": "induced calcium influx"},
      {"measurement": "calcium influx in CXCR2 transfectants", "setting": "[11]", "value": "dose-dependently induced calcium influx, and was slightly less potent and effective than CXCL8 or CXCL7"},
      {"measurement": "CXCR2 internalization", "setting": "[12]", "value": "induced CXCR2 internalization"},
      {"measurement": "CCR5 internalization", "setting": "[13]", "value": "unable to induce CCR5 internalization"},
      {"measurement": "leukocyte adhesion and emigration in postcapillary venules", "setting": "[14]", "value": "marked increase"},
      {"measurement": "neutrophil recruitment after intraperitoneal injection", "setting": "[15]", "value": "elicited neutrophil recruitment"},
      {"measurement": "upregulation of arrest chemokines known to engage CXCR2 (CXCL1, CXCL8)", "setting": "[16]", "value": "failed to upregulate"}
    ]}
  ]
}
